Test results taken from article PMC10761072, “Post-transcriptional capping generates coenzyme A-linked RNA” (RNA Biology, 2023).

Substrate: CC(C)(COP(=O)(O)O)[C@@H](O)C(=O)NCCC(=O)NCCS
Assay: purified protein
Format: biochemical, Escherichia coli
Conditions: 10 µM pppAGGAA RNA as acceptor, 500 nM PPAT, 5 mM MgCl2, pH 7.5, 37°C, pPant 10-200 µM

B1: phosphopantetheine adenylyltransferase (PPAT, CoaD) (Escherichia coli K-12) (protein)
chain: MQKRAIYPGTFDPITNGHIDIVTRATQMFDHVILAIAASPSKKPMFTLEERVALAQQATAHLGNVEVVGFSDLMANFARNQHATVLIRGLRAVADFEYEMQLAHMNRHLMPELESVFLMPSKEWSFISSSLVKEVARHQGDVTHFLPENVHQALMAKLA
notes: recombinant full-length enzyme expressed from coaD plasmid and purified; hexamer
  Km: 14 µM
